According to patent US20200270704A1 (University of Texas, published 2020):

Target: T1, NY-ESO-1 (human, UniProt P78358 1-180, limits assumed)
T1 construct: Tumor antigen; coated on ELISA plates (ThermoFisher or RayBiotech) and amine-coupled to a CM5 chip for SPR (RayBiotech); also called NY-ESO-1/CTAG1B
Test: SPR, NY-ESO-1 immobilised on CM5, antibody as analyte, bivalent analyte model
Method: Binding experiments were performed in HBS-EP buffer (10 mM HEPES pH 7.4, 150 mM NaCl, 3.4 mM EDTA, and 0.005% P20 surfactant). Serially diluted antibodies were injected at a flow rate of 30 μL/min for 60 s with a dissociation time of 5 min. The chip was regenerated after each run by sequential injection of 10 mM glycine, pH 3, and 500 mM arginine, pH 8 for 1 min each. For each run, a bovine serum albumin (BSA)-coupled surface was used to subtract non-specific receptor binding.

T1 sequence (P78358 whole entry): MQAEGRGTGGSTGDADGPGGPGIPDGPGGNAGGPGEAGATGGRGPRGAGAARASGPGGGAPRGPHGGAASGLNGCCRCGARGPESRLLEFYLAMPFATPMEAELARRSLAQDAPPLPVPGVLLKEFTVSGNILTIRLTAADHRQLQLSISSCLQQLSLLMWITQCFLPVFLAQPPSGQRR

- binding result: binds
B1: BC2-3G1 (antibody, V domains shown)
VH: QVQLQQSGPGLVKPSQTLSLTCAISGDSVSSNSAAWNWIRQSPSRGLEWLGRTYYRSKWYNDYAVSVKSRITINPDTSKNQFSLQLNSVTPEDTAVYYCARDLGIAAAGDFDYWGQGTLVTVSS
VL: EIVLTQSPATLSLSPGERATLSCRASQGVSSYLAWYQQKPGQAPRLLIYDASNRATGIPARFSGSGSGTDFTLTISSLEPEDFAVYYCHQGSNWPTFGGGTKVEI
notes: also called BC2-3G lineage member 1; BC2-3G sub-lineage 1
